The values below come from publication PMC8897509 (Nature Communications, 2022).

The target in assay [1] is T1, ubiquitin (UniProt P0CG48 1-76).
T1 construct: ubiquitin, the mature protein; cloned into pET-3a, expressed untagged; Some pull-downs used a Cy3-labelled variant with an added N-terminal Met-Cys; also called Ub^R; Ub^D; source: E. coli BL21 (DE3), purified (HiTrap SP HP, Superdex 75)
As to the kind of experiment: pull-down; GST-Ark2C proteins immobilised on Glutathione Sepharose mixed with ubiquitin; PBS pH 7.4, 0.2% Tween 20, 2 mM DTT, 4 °C, 30 min; washed four times with PBS. The following applies: both partners purified.

In assay [2] the target is T1, ubiquitin. As to the kind of experiment: crystal structure; UbArk2C fusion alone, 2.5 Å, PDB 7R70; crystals from 1.6 M Na3Citrate, 16 °C; two copies in the asymmetric unit. The settings on record: both partners purified.

B1: GST-Ark2C-ΔAcidic (Δ283-291) (domain or fragment, human, UniProt Q6ZSG1 255-346, looked up)
chain: GAVQNTIERFTFPHKYKKRRPQDGKGKKEKCTICLSMLEDGEDVRRLPCMHLFHQLCVDQWLAMSKKCPICRVDIETQLGADS
notes: Ark2C (RNF165), human, RING domain, residues 255-346, without most of the acidic residues of the β3-RING loop; source: E. coli BL21 (DE3), immobilised on Glutathione Sepharose resin; not shown: GST, N-terminal, kept
B1: the binding result with ubiquitin [1] is reported as “binds”.

B2: Ark2C RING domain (residues 255-346), as it stands in the UbArk2C fusion (domain or fragment, human, UniProt Q6ZSG1 255-346, looked up)
chain: GAVQNTIERFTFPHKYKKRRPQDGKGKKDEGEESDTDEKCTICLSMLEDGEDVRRLPCMHLFHQLCVDQWLAMSKKCPICRVDIETQLGADS
notes: Ark2C (RNF165), human, RING domain, residues 255-346; Used for the pair rows of the Ark2C part of the fusion m2 (structures and cross-links); also called RNF165; source: E. coli BL21 (DE3), purified, as part of the UbArk2C fusion
As for B2, the binding result with ubiquitin [2] is on record as “binds”.

B3: GST-Ark2C^KK/AA (Lys271 and Lys272 to alanine) (domain or fragment, human, UniProt Q6ZSG1 255-346, looked up)
chain: GAVQNTIERFTFPHKYAARRPQDGKGKKDEGEESDTDEKCTICLSMLEDGEDVRRLPCMHLFHQLCVDQWLAMSKKCPICRVDIETQLGADS
notes: Ark2C (RNF165), human, RING domain, residues 255-346; The functional row uses this molecule, although the activity assays were done with the protein after cleavage of GST; source: E. coli BL21 (DE3), immobilised on Glutathione Sepharose resin; not shown: GST, N-terminal, kept
On to B3, for which the binding result in the assay with ubiquitin [1] is “binds”.
